Measurements published in PMC1847435, “Structural investigations of the ferredoxin and terminal oxygenase components of the biphenyl 2,3-dioxygenase from Sphingobium yanoikuyae B1” (BMC Structural Biology, 2007).

B1: Biphenyl 2,3-dioxygenase from Sphingobium yanoikuyae strain B1, terminal oxygenase α subunit (enzyme)
chain: MSSDATLVDTVNASQSRQVFWDEDVYALEIERIFSRAWLMLGHESLVPKPGDFITTYMAEDKVILSHQSDGTFRAFINSCSHRGNQICHADSGNAKAFVCNYHGWVFGQDGSLVDVPLESRCYHNSLDKQKLAAKSVRVETYKGFIFGCHDPEAPSLEDYLGEFRYYLDTIWEGAGGGMELLGPPMKSLLQCNWKVPAENFIGDGYHVGWTHAAALSQIGGELAGLAGNRADIPFDDLGLQFTTRHGHGFGVIDNAAAGLHIKREGWTKFLEDTRGEVRRKFGPERERLYLGHWNCSIFPNCSFLYGTNTFKIWHPRGPHEIEVWTYTIVPRDADPATKSMIQREAIRTFGTAGTLESDDGENMSSATYINRGVITRNGRMNSTMGVGYEGPHPVYPGIVGISFIGETSYRGFYRFWKEMIDAPDWASVKANDDTWDSVFPNRNFWNEKLNAAE
notes: α subunit of biphenyl 2,3-dioxygenase (BPDO-OB1), Sphingobium yanoikuyae B1, encoded by bphA1f; the α subunit consists of 454 residues; residues 6-454 modelled in the structure; Co-expressed with the β subunit (bphA1fA2f in one vector); also called BPDO-OB1 α subunit; source: cloned from B1 into pET101D, expressed as described in Yu et al. [45], purified

Key:
[1] = molecular target: the molecule itself; assay: crystal structure; purified BPDO-OB1 at 20 mg/ml in 20 mM potassium phosphate pH 6.8; space group P3(1)21, complete α3β3 in the asymmetric unit; native (1.70 Å) and biphenyl-soaked crystals
[2] = molecular target: B1; assay: as above; settings: both partners purified

With B1 the “stoichiometry N” value [1] was 3.

B2: Biphenyl 2,3-dioxygenase from Sphingobium yanoikuyae strain B1, terminal oxygenase β subunit (enzyme)
chain: MSSEQIPVTPDVHYDIEAHYRAEVRMFQTGQYREWLQGMVAEDIHYWMPIYEQRLTRDRRPDPTPDDAAIYNDDFGELKQRVERLYSGQVWMEDPPSKIRYFVSNVEAFEAGNGELDVLSNILVYRNRRQTEVTVHTLGREDKLRRDGNGFKVFRRKLILDARVTQDKNLYFFC
notes: β subunit of biphenyl 2,3-dioxygenase (BPDO-OB1), Sphingobium yanoikuyae B1, encoded by bphA2f; residues 5-174 modelled in the structure; Co-expressed with the α subunit (bphA1fA2f in one vector); also called BPDO-OB1 β subunit; source: cloned from B1 into pET101D, expressed as described in Yu et al. [45], purified
In the case of B2, the “stoichiometry N” value [1] is reported as 3 and the binding result [2] is reported as “binds”.
